The data set can be described thus: soluble on expression in E. coli; label from the status in PepcDB or PDB records.
With “MSLSHVFEALSTETLPVRLGGNAAMKEKVGSDSSRWAIREVGDGNLNLVFIVTGEAGAVIVKQALPYVRLVGESWPLPLKRSFFEYHALKRQGARDPGMVPEILFFDEAQAIIVMEFLTPHIILRRALIDGRELPKIGRDLGLFVARTLFRGSDLSMVTREKKADVALFSDNVELCDITENLVFSDPYFEAKLNHHTTPQLDPIVAELRADRELKVEAQRLKHLFSAKAETLCHGDLHTGSVMVTDDETRVIDPEFAFYGPISFDVGMLIANFWMSYFSQAGHETAPGARDSMRAYLLDTIDTLWETFRAEFAALWRTERKGILYQASLFEDRQDPLAAEQALNIVIDEIWHEMLGFAGIETHRRILGLAHNADFETITDPDRRASCESKALKFGRHLAVNRQRIHSLRDIRETVERLEKEILAEGHHHHHH”, the “soluble on expression in E. coli” value was “soluble”. The entry for “MSLSIKLIAVDIDGTLVNSQKEITPEVFSAIQDAKEAGVKVVIATGRPIAGVAKLLDDLQLRDQGDYVVTFNGALVQETATGHEIISESLTYEDYLDMEFLSRKLGVHMHAITKDGIYTANRNIGKYTVHESTLVSMPIFYRTPEEMAGKEIVKCMFIDEPEILDAAIEKIPAEFYERYSINKSAPFYLELLTKNVDKGSAITHLAEKLGLTKDETMAIGDEENDRAMLEVVGNPVVMENGNPEIKKIAKYITKTNDESGVAHAIRTWVLEGHHHHHH” is “soluble”; for “MSLSIPREFSNAIRFLSIDATLKAKSGHPGMPMGMADIATVLWTKFLKHNPNNPHWINRDRFVLSNGHGSMLLYSLLHLTGYDLSIEDIKNFRQLHSKTPGHPEYGYTPGVETTTGPLGQGVANAVGMALGEKLLSDRYNTPDLKVIDHHTYVFLGDGCLMEGVSHEACSLAGTLGLNKLVAFWDDNNISIDGDTKGWFSDNTPERFRAYGWHVIENVDGHDFVAIEKAINEAHSQQQKPTLICCKTVIGFGSPEKAGTASVHGSPLSDQERASAAKELNWDYQAFEIPQDVYKYWDAREKGQALEANWQGQRNLFKDSPKFDEFERVLSKELPVGLESAINDYIASQLSNPVKVATRKASQMVLEVLCKNMPEMFGGSADLTGSNNTNWSGSVWLNNTQEGANYLSYGVREFGMAAIMNGLSLYGGIKPYGGTFLVFSDYSRNAIRMSALMKQPVVHVMSHDSIGLGEDGPTHQPIEHVPSLRLIPNLSVWRPADTIETMIAWKEAVKSKDTPSVMVLTRQNLMPVVQTQHQVANIARGGYLVKDNPDAKLTIVATGSEVELAVKVANEFEKKGIKLNVASIPCVEVFATQAHEYKKTVIKDDIPAVFVEMAQPDMWYKYMPKAGGEVKGIYSFGESAPAEDLFKRFGFTVENISNIVAKYV” it is “soluble”; for “MSLSITHQPANLTLAQIQQMIGGVMLLSQHSPLHRRYVVAEWLQRILPAFELNQFCYYEDEHGRPIAFCNWAFVSEQIRDELLSGVREISPSDWRSGQQIYIPEMIAPFGHGREVVNDLRRRVFLPWQGQKVCTVRGKVDAQNDRCIRKVQWFSIEGHHHHHH” it is “soluble”. The entry for “MSLSKNKLKTPHCMLNLTFNWLSFCEMRGTRDTVEDMFVCKANPVDNQACMAIFDGHGGSKTSYYACGVFIKLYTSAKMIFSKQWLRGTMRGISESVKTKLFPDGSTAAVAMFKDRKLITSTIGDSRIIVMTEDGKLKYENRVHKPTQREEFERVHEAGGSVYGFRLQNSLALSRTMGDIAVPGISAESEEDEVNLDEEDRWVIVGCDGVFDELPMSFVGELCKKAKSAIGLSHSLRTAAFAARSQDNITVVALDVKTLYSKVELASDMNSTMREGHHHHHH” is “not soluble”; for “MSLSKQETEKVRVFALGGVGEIGKNMYGIEVDEDIIVIDAGLMFPDDDMLGVDIVIPDVSYLVENEERVRGIILTHGHEDHIGGLSYVLKKINVPVYATKLTLGLVEEKLKEAGIHRHAELRLIDSNSRIKLGNTPVSFFRVSHSIPDCVGVCVETSQGAIVHTGDFKFDQTPVDGKHADIGKMAAIGQKGVLCLMSDSTNAERPGTTKSEAEAGKGIKDVFARTKGRLIVTSFASNVHRIQQVIQAASATNRKLAVVGKSMVRVISIAGKLGYLKIPKDLLIDMDEVNKHKPEKVAILTTGSQGEPMSALTRMAKGAHRHITITPNDTVIIAATAIPGNETSVSAVIDQLYRIGAEVIYGSQAVHASGHGSQEELKLMLNLMRPKFFLPIHGEIRMQHAHQQLALQVGIKKERIYIVEKGEVIEFTKQQARRGPKVPSGHVLIDGLGVGDVGNIVLRDRRLLSKDGILVVVVTLNKKTNTIVSGPNIISRGFVYVRESEELLEKSNELVTSILQKCVTENVNEWSSLKSNIREGLSRYLFEKTKRRPMILPIIMEEGHHHHHH” it is “soluble”; for “MSLSKRNKPQESKEFGFQALKINGTYVSTDIMKEERNKFFEKYKRNADVLRMNDHERNDMLLDQVIERLLLEDYVNNKSGVTATDSEVEDYINRFIKPRYGDSLGTFMSSQGYTNEEEMKAGIKEYILKHKALYKAAKEKNVTLTEQELDEGYEKHKIQNKKVDIRHIFISSQERGKEEAKKLADEIYNRLKNNEDFETLAKQYSDDEKTKESGGVITELRAGFNEAVFDNAVFTAEAGQLLEPIEVARGYEIVYVDKVTEGHHHHHH” it is “soluble”. As for “MSLSKTSKMKKTEISKKPSELGISNKTQDDLSKYSDTVNIALFGVDRRLKTDVSRSDSIMILTMDPAHKKLKLSSIMRDTYVNVDGHGMTKITHAYAYGGPQLAIKTINENFKLNIKDYVTVDFYALEKIIDKLNGVEINVQSDEVGYLNGYIDEVSKYEKVTPNHVTSSGKQLLDGRQAVAYSRIRYTAGGDFVRTERQRTVLMAVFNKLQAQGKSNMVSMFDEILPYTETNMGSIDIAKYGTKFISSDISNIDQERFPLDGYCSGVTVDNVWYLKTDLNVTSDQMRKYIFEDVKPSPKASLVNIPEKEGHHHHHH”, the entry is “soluble”; as for “MSLSKVRYGVVSTAKVAPRFIEGVRLAGNGEVVAVSSRTLESAQAFANKYHLPKAYDKLEDMLADESIDVIYVATINQDHYKVAKAALLAGKHVLVEKPFTLTYDQANELFALAESCNLFLMEAQKSVFIPMTQVIKKLLASGEIGEVISISSTTAYPNIDHVTWFRELELGGGTVHFMAPYALSYLQYLFDATITHASGTATFPKGQSDSQSKLLLQLSNGVLVDIFLTTRLNLPHEMIIYGTEGRLIIPHFWKTTHAKLVRNDTSARTIQVDMVSDFEKEAYHVSQMILEGQRVSHIMTPQLTLSGVKIIEDLYRSWGKEGHHHHHH”, “soluble”. “MSLSLNFLDFEKPIVELETKIQALRDVSRHSTSASVDLDKELEQLEKKSLELKKKIFSDLGAWQVAQLARHPQRPYTLDYLKHIFTEFDELAGDRAYADDKAIVGGIARLEGRSVMVIGHQKGRETREKVKRNFGMPKPEGYRKALRLMEMAERFNMPIITFIDTAGAYPGVGAEERGQSEAIAKNLKVMSGLKVPVICNVVGEGGSGGALAIGVGDYVNMLQYSTYSVISPEGCASILWRDSDKAPQAAEAMGLIAPRLKELELIDEIIEEPLGGAHRDHKQTAENVKATLLRQLADLDALDHENLLERRYQRLMNYGYCEGHHHHHH”: the “soluble on expression in E. coli” value is “soluble”. The entry for “MSLSLPPPRRVVLTTPTHFDVEYVINPHMSENVGAVNTDVAWQQWKALRAAYTALDHTPVLVNGQSGLPDMVFCANQTLPFYDPASDSKGVVLSRMHSEQRADEVPYYARFFEEEGYAVDTLPEDLDADFEGMGDALWHPGHHLLWGGYGYRTSPEAYEALGDLLDVPIVALRLVDPDYYHLDTCLCPLDARHALVAPEAFDDAGRALIDALFETVIEVPDHEARHQFACNAHCPDGAHVLIQEGCEGTNAQLRNHDFVPVELDTSEFMKSGGSVFCMKQMIWEGHHHHHH” is “not soluble”; for “MSLSLREEALHLHKVNQGKLESKSKVEVRNAKDLSLAYSPGVAEPCKDIHEDINKVYDYTMKGNMVAVVTDGTAVLGLGNIGPEAALPVMEGKAVLFKSFAGVDAFPIALNTNDVDKIVETVKLLEPTFGGVNLEDIAAPNCFIIEERLKKETNIPVFHDDQHGTAIVTVAGLVNALKLSGKSMSSIKVVANGAGAAGIAIIKLLHHYGVRDIVMCDSKGAIYEGRPNGMNDVKNEVAKFTNQDRKDGSLKDVIVDADVFIGVSVAGALTKEMVQSMAKDPIIFAMANPNPEIMPEDAREAGASVVGTGRSDFPNQVNNVLAFPGIFRGALDVRATHINEEMKIAAVEAIASLVSEDELSADYVIPAPFDKRVAPAVAKAVAKAAMETGVARITVDPEEVAEKTRKLTIIGEEGHHHHHH” it is “soluble”. The entry for “MSLSMSLRDQLLKAGLVNEKQAKQATKQKQKQQRLEHKNQVDKDDSQRQAAEQAKAEKLARDQELNRQQQEKAEKKAKAAQIKQLIEGTRLPKLESDDYYNFVDAKKVKRIAVNDLIRDKLSRGSLAIVSYDGRYEIVPRDAAVKIQERDPRRVVLLNVQSQEPDEDDPYKDYVVPDDLMWEGGSHHHHHH” is “soluble”.

For “MSLSNRAGEILIVEDSPTQAEHLKHILEETGYQTEHVRNGREAVRFLSLTRPDLIISDVLMPEMDGYALCRWLKGQPDLRTIPVILLTILSDPRDVVRSLECGADDFITKPCKDVVLASHVKRLLSGVKRTEERYSRESITLAFGNEGHHHHHH”, the “soluble on expression in E. coli” value was “soluble”. As for “MSLSNTELILIRVTGEDRPGLTASVTEILAKYDATILDIGQADIHNTLSLGILFRSEERHSGFIMKELLFKASSLGVTIRFEPIGTDQYENWVGMQGKNRYILTVLGRKLSARQISAATRVLAEQDLNIDAIKRLTGRIPLDEDKTDTRTRACIEFSVRGTPKDRIAMQERLMQLASEQEMDFSFQQDNMYRRMRRLICFDMDSTLIETEVIDELAIRAGVGDEVKAITESAMRGEIDFTESFTRRVALLKGLDESVMQEIAESLPITEGVDRLMYVLKKYGYKIAILSGGFTYFGQYLQKKYGIDYVYANELEIVDGKLTGRYLGDVVDGKRKAELLRLIAQVEKVDIAQTIAVGDGANDLPMLGIAGLGIAFHAKPKVVANAKQSINTIGLDGVLYFLGFKDSYLNEGHHHHHH”, the entry is “soluble”; as for “MSLSPDSAHQQVSLRGGSGSEFMIVDITDGRLLGTIDSAKAMSQTHPGAVYLHQGESFVIDELDLEENLALARPELPDYTTYARSDTDIRITSAPLEDEVFDAGGGLWVANVEVQVTDRVTGYVTRLSDGTTLDATPLYLPPQILQTRAVAYTIDPLALEAMGIPAADIPGALHAAEHAAIGMLPLLATCDRWDIGGVSTALHADTGYPTVFVYDGMDGGAGFADTGFRRFAQWIEATFEVVRSCSCESGCPSCVQSPKCGNGNNPLDKAGAIKLLGAMVTLLGTSEGHHHHHH”, “not soluble”; as for “MSLSPKVAWWCRHPLTFLMEAADDLCYSIVDLEDGFHMGYLPFAAVQDKLQSIADIDLNQYEGSPAETIKRLRAKAINRLVKEVAQLFLDHEPDILAGKFDQSLVELSRFSPQLKEIETMTTNAVFHHPNVVRIKIAGFEVLGDLLTDFLTSVLEKQPRPKGKLLKFMLPPEHQIAPDEDNYSKILKVTDYIAGMTDLQATLLYQQLRGEGHHHHHH”, “soluble”. The entry for “MSLSQPSFGLSNTATQGTLGQQSLVQPQNQQPQLAAQQLQSQQLSRYPQLIQEQILKCKESWDSNSYKTSLRSFVYNKVNETDAILYTKPTNVSQEEWDKAIENKPSSDLIPIQVFGFEGLNNRNQIQVENVAQARVILNQILDKTKQLQQSHSFETSARIMKVQARNAQIEKRILKLGTQLAILKNRRLPLTISEEKMWGQFQELLKSSNDPAGLGKTNELWARLAVLRERAKTISEQLDSKLVIIGEGHHHHHH” is “soluble”; for “MSLSRQIRYYGTGTEKVEEELQDLLPDANIIRMDNDTTRKKGAHAKLLAQFGSGEADILIGTQMIAKGLDFPNVTLVGVLNADTALGLPDFRASERTFQLLTQVSGRAGRAEKSGHVYIQTFNPDHYAIRFAQHHDYEGFFKYEMQMRHRGGYPPYYFTVQITASDLDEGVAAKRMYQLLQWLRPRLAPSTILLGPTPKPIARVNRRYYYQIVIKYKQEPNLAQTLTTLLHETQAQQRQGLQIGIDVEPLHFMEGHHHHHH” it is “not soluble”.

The record behind these values is the DeepSol protein solubility set.
